Results reported in the supplement of paper PMC7877785.
± gives the uncertainty stated by the source.

Experiment: self-splicing fitness, log relative to wild type (ln ratio); higher = more splicing; Tetrahymena group I intron in knt gene, E. coli kanamycin selection, DiMSum; sequences stand for … in CUCUCU…GGAGGGAAAAGUUAUCAGGCAUGCACCUGGUAGCUAGUCUUUAAACCAAUAGAUUGCAUCGGUUUAAAAGGCAAGACCGUCAAAUUGCGGGAAAGGGGUCAACAGCCGUUCAGUACCAAGUCUCAGGGGAAACUUUGAGAUGGCCUUGCAAAGGGUAUGGUAAUAAGCUGACGGACAUGGUCCUAACCACGCAGCCAAGUCCUAAGUCAACAGAUCUUCUGUUGAUAUGGAUGCAGUUCACAGACUAAAUGUCGGUCGGGGAAGAUGUAUUCUUCUCAUAAGAUAUAGUCGGACCUCUCCUUAAUGGGAGCUAGCGGAUGAAGUGAUGCAACACUGGAGCCGCUGGGAACUAAUUUGUAUGCGAAAGUAUAUUGAUUAGUUUUGGAGUACUCGUGGUCG
How it was run: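 A randomised library covering all eight P1ex-region intron nucleotides was built with the intron in the knt kanamycin-resistance gene on pET-22b(+) and held in E. coli BL21(DE3). Cells were grown overnight at 37°C or 30°C on LB agar, with or without 25 μg/mL kanamycin, plus 100 μg/mL carbenicillin, 50 μM IPTG and 0.2% rhamnose, and pooled colonies were amplicon-sequenced on an Illumina HiSeq 2500. DiMSum fitness is the error-weighted combination of wild-type-normalised replicate fold changes, kanamycin versus none.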

Row | Sequence | self-splicing fitness (ln) (30 °C) | self-splicing fitness (ln) (37 °C)
1 | AUCAAGCAAUAUUACGGCAU | -0.523 ± 0.067 | 0.787 ± 0.088
2 | CGCAAGCAAUAUUACGACCG | -1.4 ± 0.11 | -0.441 ± 0.14
3 | CAUUAGCAAUAUUACGUCGU | -4.03 ± 0.26 | -0.437 ± 0.17
4 | UAAAAGCAAUAUUACGCCGU | -3.01 ± 0.21 | -2.1 ± 0.22
5 | GCCUAGCAAUAUUACGGACU | -1.01 ± 0.1 | -0.221 ± 0.11
6 | AUAAAGCAAUAUUACGAGAU | -2.31 ± 0.11 | -1.22 ± 0.12
7 | AGACAGCAAUAUUACGAAGU | -3.47 ± 0.14 | -2.26 ± 0.15
8 | CAGGAGCAAUAUUACGGCUG | -2.97 ± 0.18 | -2.37 ± 0.22
9 | UUAGAGCAAUAUUACGAUGA | 0.174 ± 0.1 | 0.371 ± 0.14
10 | GCUUAGCAAUAUUACGCAUU | -0.542 ± 0.095 | -0.78 ± 0.12
11 | GAGGAGCAAUAUUACGUAUU | -3.47 ± 0.32 | 0.0104 ± 0.25
12 | UGUUAGCAAUAUUACGCAAG | -3.38 ± 0.37 | -2.13 ± 0.4
13 | CGCGAGCAAUAUUACGCCGG | -2.19 ± 0.25 | -1.58 ± 0.44
14 | CAUAAGCAAUAUUACGACGU | -2.51 ± 0.14 | -1.27 ± 0.15
15 | CUACAGCAAUAUUACGUAGU | -3.43 ± 0.14 | -2.49 ± 0.2
16 | UAACAGCAAUAUUACGGUUG | -0.966 ± 0.043 | -1.04 ± 0.064
17 | AAUAAGCAAUAUUACGGGGC | -3.29 ± 0.26 | -2.91 ± 0.37
18 | AGGCAGCAAUAUUACGAAGC | -4.02 ± 0.42 | -2.73 ± 0.33
19 | UGGUAGCAAUAUUACGUUCU | -1.48 ± 0.12 | -0.725 ± 0.14

Row | Sequence | self-splicing fitness (ln) (30 °C) | self-splicing fitness (ln) (37 °C)
20 | UGCCAGCAAUAUUACGGUUG | -1.94 ± 0.096 | -0.692 ± 0.11
21 | UACCAGCAAUAUUACGGGAC | -3.46 ± 0.19 | -2.31 ± 0.2
22 | UCAUAGCAAUAUUACGGUAG | -3.28 ± 0.23 | -1.77 ± 0.17
23 | CCGUAGCAAUAUUACGUGUU | -3.35 ± 0.2 | -2.47 ± 0.18
24 | ACGGAGCAAUAUUACGGUGA | -3.69 ± 0.23 | -1.55 ± 0.21
25 | GGACAGCAAUAUUACGCUGG | -2.75 ± 0.28 | -2 ± 0.34
26 | CGUCAGCAAUAUUACGAUCU | -1.09 ± 0.086 | -0.0587 ± 0.11
27 | AGUUAGCAAUAUUACGGCUC | -3.53 ± 0.26 | -2.46 ± 0.34
28 | CCUGAGCAAUAUUACGCGGU | -3.87 ± 0.21 | -1.54 ± 0.16
29 | GUUGAGCAAUAUUACGGUGU | -2.22 ± 0.2 | -1.1 ± 0.33
30 | GGUCAGCAAUAUUACGUUGU | -1.51 ± 0.057 | -0.47 ± 0.068
31 | GCAUAGCAAUAUUACGCCCC | -0.129 ± 0.26 | 0.692 ± 0.34
32 | UGACAGCAAUAUUACGUAGC | -4.08 ± 0.29 | -2.28 ± 0.28
33 | CUUAAGCAAUAUUACGGCUA | -2.73 ± 0.45 | 
34 | ACAUAGCAAUAUUACGUGGU | -3.44 ± 0.16 | -3.3 ± 0.24
35 | CUCCAGCAAUAUUACGACUU | -3.85 ± 0.26 | -2.15 ± 0.19
36 | UUUCAGCAAUAUUACGGAGG | -1.53 ± 0.17 | -0.401 ± 0.18
37 | UGAUAGCAAUAUUACGAAUA | -3.62 ± 0.47 | -0.595 ± 0.2
